Source: patent US20230365662A1
“And” between values parts separate entries of the source, which are not always exact repeats. Equal entries are not always repeated.

B1: parental mouse (KB001) Fab FASEBA, VL variant S95H (Fab, V domains shown)
VH: EVQLKQSGPGLVAPSQSLSITCTVSGFSLSIYSVHWVRQPPGKGLEWLGMIWGGGSSDYNSALKSRLSISKDNSKSQVFLKMNSLQTDDTAMYYCARNGNFYAMDYWGQGTSVTVSS
VL: QIVLTQSPAIMSASLGERVTMTCTASSSVSSSFLHWYQQKPGSSPQLWIYSTSNLASGVPARFSGSGSGTSYSLTISSMEAEDAATYYCHQYHHHPYIYTFGGGTKLEIK
B2: parental mouse (KB001) Fab FASEBA, VL variant S95Y (Fab, V domains shown)
VH: EVQLKQSGPGLVAPSQSLSITCTVSGFSLSIYSVHWVRQPPGKGLEWLGMIWGGGSSDYNSALKSRLSISKDNSKSQVFLKMNSLQTDDTAMYYCARNGNFYAMDYWGQGTSVTVSS
VL: QIVLTQSPAIMSASLGERVTMTCTASSSVSSSFLHWYQQKPGSSPQLWIYSTSNLASGVPARFSGSGSGTSYSLTISSMEAEDAATYYCHQYHHYPYIYTFGGGTKLEIK
B3: parental mouse (KB001) Fab FASEBA, VL variant S95C (Fab, V domains shown)
VH: EVQLKQSGPGLVAPSQSLSITCTVSGFSLSIYSVHWVRQPPGKGLEWLGMIWGGGSSDYNSALKSRLSISKDNSKSQVFLKMNSLQTDDTAMYYCARNGNFYAMDYWGQGTSVTVSS
VL: QIVLTQSPAIMSASLGERVTMTCTASSSVSSSFLHWYQQKPGSSPQLWIYSTSNLASGVPARFSGSGSGTSYSLTISSMEAEDAATYYCHQYHHCPYIYTFGGGTKLEIK
B4: parental mouse (KB001) Fab FASEBA, VL variant Y97H (Fab, V domains shown)
VH: EVQLKQSGPGLVAPSQSLSITCTVSGFSLSIYSVHWVRQPPGKGLEWLGMIWGGGSSDYNSALKSRLSISKDNSKSQVFLKMNSLQTDDTAMYYCARNGNFYAMDYWGQGTSVTVSS
VL: QIVLTQSPAIMSASLGERVTMTCTASSSVSSSFLHWYQQKPGSSPQLWIYSTSNLASGVPARFSGSGSGTSYSLTISSMEAEDAATYYCHQYHHSPHIYTFGGGTKLEIK
B5: parental mouse (KB001) Fab FASEBA, VL variant Y97Q (Fab, V domains shown)
VH: EVQLKQSGPGLVAPSQSLSITCTVSGFSLSIYSVHWVRQPPGKGLEWLGMIWGGGSSDYNSALKSRLSISKDNSKSQVFLKMNSLQTDDTAMYYCARNGNFYAMDYWGQGTSVTVSS
VL: QIVLTQSPAIMSASLGERVTMTCTASSSVSSSFLHWYQQKPGSSPQLWIYSTSNLASGVPARFSGSGSGTSYSLTISSMEAEDAATYYCHQYHHSPQIYTFGGGTKLEIK
B6: parental mouse (KB001) Fab FASEBA, VL variant Y97S (Fab, V domains shown)
VH: EVQLKQSGPGLVAPSQSLSITCTVSGFSLSIYSVHWVRQPPGKGLEWLGMIWGGGSSDYNSALKSRLSISKDNSKSQVFLKMNSLQTDDTAMYYCARNGNFYAMDYWGQGTSVTVSS
VL: QIVLTQSPAIMSASLGERVTMTCTASSSVSSSFLHWYQQKPGSSPQLWIYSTSNLASGVPARFSGSGSGTSYSLTISSMEAEDAATYYCHQYHHSPSIYTFGGGTKLEIK
B7: parental mouse (KB001) Fab FASEBA, VL variant Y97R (Fab, V domains shown)
VH: EVQLKQSGPGLVAPSQSLSITCTVSGFSLSIYSVHWVRQPPGKGLEWLGMIWGGGSSDYNSALKSRLSISKDNSKSQVFLKMNSLQTDDTAMYYCARNGNFYAMDYWGQGTSVTVSS
VL: QIVLTQSPAIMSASLGERVTMTCTASSSVSSSFLHWYQQKPGSSPQLWIYSTSNLASGVPARFSGSGSGTSYSLTISSMEAEDAATYYCHQYHHSPRIYTFGGGTKLEIK
B8: parental mouse (KB001) Fab FASEBA, VL variant Y97I (Fab, V domains shown)
VH: EVQLKQSGPGLVAPSQSLSITCTVSGFSLSIYSVHWVRQPPGKGLEWLGMIWGGGSSDYNSALKSRLSISKDNSKSQVFLKMNSLQTDDTAMYYCARNGNFYAMDYWGQGTSVTVSS
VL: QIVLTQSPAIMSASLGERVTMTCTASSSVSSSFLHWYQQKPGSSPQLWIYSTSNLASGVPARFSGSGSGTSYSLTISSMEAEDAATYYCHQYHHSPIIYTFGGGTKLEIK
B9: parental mouse (KB001) Fab FASEBA, VL variant Y97K (Fab, V domains shown)
VH: EVQLKQSGPGLVAPSQSLSITCTVSGFSLSIYSVHWVRQPPGKGLEWLGMIWGGGSSDYNSALKSRLSISKDNSKSQVFLKMNSLQTDDTAMYYCARNGNFYAMDYWGQGTSVTVSS
VL: QIVLTQSPAIMSASLGERVTMTCTASSSVSSSFLHWYQQKPGSSPQLWIYSTSNLASGVPARFSGSGSGTSYSLTISSMEAEDAATYYCHQYHHSPKIYTFGGGTKLEIK
B10: parental mouse (KB001) Fab FASEBA, VL variant Y97F (Fab, V domains shown)
VH: EVQLKQSGPGLVAPSQSLSITCTVSGFSLSIYSVHWVRQPPGKGLEWLGMIWGGGSSDYNSALKSRLSISKDNSKSQVFLKMNSLQTDDTAMYYCARNGNFYAMDYWGQGTSVTVSS
VL: QIVLTQSPAIMSASLGERVTMTCTASSSVSSSFLHWYQQKPGSSPQLWIYSTSNLASGVPARFSGSGSGTSYSLTISSMEAEDAATYYCHQYHHSPFIYTFGGGTKLEIK
B11: parental mouse (KB001) Fab FASEBA, VL variant Y97V (Fab, V domains shown)
VH: EVQLKQSGPGLVAPSQSLSITCTVSGFSLSIYSVHWVRQPPGKGLEWLGMIWGGGSSDYNSALKSRLSISKDNSKSQVFLKMNSLQTDDTAMYYCARNGNFYAMDYWGQGTSVTVSS
VL: QIVLTQSPAIMSASLGERVTMTCTASSSVSSSFLHWYQQKPGSSPQLWIYSTSNLASGVPARFSGSGSGTSYSLTISSMEAEDAATYYCHQYHHSPVIYTFGGGTKLEIK
B12: parental mouse (KB001) Fab FASEBA, VL variant Y97L (Fab, V domains shown)
VH: EVQLKQSGPGLVAPSQSLSITCTVSGFSLSIYSVHWVRQPPGKGLEWLGMIWGGGSSDYNSALKSRLSISKDNSKSQVFLKMNSLQTDDTAMYYCARNGNFYAMDYWGQGTSVTVSS
VL: QIVLTQSPAIMSASLGERVTMTCTASSSVSSSFLHWYQQKPGSSPQLWIYSTSNLASGVPARFSGSGSGTSYSLTISSMEAEDAATYYCHQYHHSPLIYTFGGGTKLEIK
B13: parental mouse (KB001) Fab FASEBA, VL variant I98L (Fab, V domains shown)
VH: EVQLKQSGPGLVAPSQSLSITCTVSGFSLSIYSVHWVRQPPGKGLEWLGMIWGGGSSDYNSALKSRLSISKDNSKSQVFLKMNSLQTDDTAMYYCARNGNFYAMDYWGQGTSVTVSS
VL: QIVLTQSPAIMSASLGERVTMTCTASSSVSSSFLHWYQQKPGSSPQLWIYSTSNLASGVPARFSGSGSGTSYSLTISSMEAEDAATYYCHQYHHSPYLYTFGGGTKLEIK
B14: parental mouse (KB001) Fab FASEBA, VL variant I98V (Fab, V domains shown)
VH: EVQLKQSGPGLVAPSQSLSITCTVSGFSLSIYSVHWVRQPPGKGLEWLGMIWGGGSSDYNSALKSRLSISKDNSKSQVFLKMNSLQTDDTAMYYCARNGNFYAMDYWGQGTSVTVSS
VL: QIVLTQSPAIMSASLGERVTMTCTASSSVSSSFLHWYQQKPGSSPQLWIYSTSNLASGVPARFSGSGSGTSYSLTISSMEAEDAATYYCHQYHHSPYVYTFGGGTKLEIK
B15: parental mouse (KB001) Fab FASEBA, VL variant I98R (Fab, V domains shown)
VH: EVQLKQSGPGLVAPSQSLSITCTVSGFSLSIYSVHWVRQPPGKGLEWLGMIWGGGSSDYNSALKSRLSISKDNSKSQVFLKMNSLQTDDTAMYYCARNGNFYAMDYWGQGTSVTVSS
VL: QIVLTQSPAIMSASLGERVTMTCTASSSVSSSFLHWYQQKPGSSPQLWIYSTSNLASGVPARFSGSGSGTSYSLTISSMEAEDAATYYCHQYHHSPYRYTFGGGTKLEIK
B16: parental mouse (KB001) Fab FASEBA, VL variant I98M (Fab, V domains shown)
VH: EVQLKQSGPGLVAPSQSLSITCTVSGFSLSIYSVHWVRQPPGKGLEWLGMIWGGGSSDYNSALKSRLSISKDNSKSQVFLKMNSLQTDDTAMYYCARNGNFYAMDYWGQGTSVTVSS
VL: QIVLTQSPAIMSASLGERVTMTCTASSSVSSSFLHWYQQKPGSSPQLWIYSTSNLASGVPARFSGSGSGTSYSLTISSMEAEDAATYYCHQYHHSPYMYTFGGGTKLEIK
B17: parental mouse (KB001) Fab FASEBA, VL variant T100I (Fab, V domains shown)
VH: EVQLKQSGPGLVAPSQSLSITCTVSGFSLSIYSVHWVRQPPGKGLEWLGMIWGGGSSDYNSALKSRLSISKDNSKSQVFLKMNSLQTDDTAMYYCARNGNFYAMDYWGQGTSVTVSS
VL: QIVLTQSPAIMSASLGERVTMTCTASSSVSSSFLHWYQQKPGSSPQLWIYSTSNLASGVPARFSGSGSGTSYSLTISSMEAEDAATYYCHQYHHSPYIYIFGGGTKLEIK
B18: parental mouse (KB001) Fab FASEBA, VL variant T100P (Fab, V domains shown)
VH: EVQLKQSGPGLVAPSQSLSITCTVSGFSLSIYSVHWVRQPPGKGLEWLGMIWGGGSSDYNSALKSRLSISKDNSKSQVFLKMNSLQTDDTAMYYCARNGNFYAMDYWGQGTSVTVSS
VL: QIVLTQSPAIMSASLGERVTMTCTASSSVSSSFLHWYQQKPGSSPQLWIYSTSNLASGVPARFSGSGSGTSYSLTISSMEAEDAATYYCHQYHHSPYIYPFGGGTKLEIK
B19: parental mouse (KB001) Fab FASEBA, VL variant T100V (Fab, V domains shown)
VH: EVQLKQSGPGLVAPSQSLSITCTVSGFSLSIYSVHWVRQPPGKGLEWLGMIWGGGSSDYNSALKSRLSISKDNSKSQVFLKMNSLQTDDTAMYYCARNGNFYAMDYWGQGTSVTVSS
VL: QIVLTQSPAIMSASLGERVTMTCTASSSVSSSFLHWYQQKPGSSPQLWIYSTSNLASGVPARFSGSGSGTSYSLTISSMEAEDAATYYCHQYHHSPYIYVFGGGTKLEIK
B20: KB001 parental mouse Fab VH variant K64H (Fab, V domains shown)
VH: EVQLKQSGPGLVAPSQSLSITCTVSGFSLSIYSVHWVRQPPGKGLEWLGMIWGGGSSDYNSALHSRLSISKDNSKSQVFLKMNSLQTDDTAMYYCARNGNFYAMDYWGQGTSVTVSS
VL: QIVLTQSPAIMSASLGERVTMTCTASSSVSSSFLHWYQQKPGSSPQLWIYSTSNLASGVPARFSGSGSGTSYSLTISSMEAEDAATYYCHQYHHSPYIYTFGGGTKLEIK

Each binder was assayed against HRgpA-6H (Porphyromonas gingivalis) (UniProt P28784) (assay: ELISA, Fab FASEBA supernatant on coated HRgpA-6H).
Chain of UniProt P28784 (P28784 228-991 limits assumed): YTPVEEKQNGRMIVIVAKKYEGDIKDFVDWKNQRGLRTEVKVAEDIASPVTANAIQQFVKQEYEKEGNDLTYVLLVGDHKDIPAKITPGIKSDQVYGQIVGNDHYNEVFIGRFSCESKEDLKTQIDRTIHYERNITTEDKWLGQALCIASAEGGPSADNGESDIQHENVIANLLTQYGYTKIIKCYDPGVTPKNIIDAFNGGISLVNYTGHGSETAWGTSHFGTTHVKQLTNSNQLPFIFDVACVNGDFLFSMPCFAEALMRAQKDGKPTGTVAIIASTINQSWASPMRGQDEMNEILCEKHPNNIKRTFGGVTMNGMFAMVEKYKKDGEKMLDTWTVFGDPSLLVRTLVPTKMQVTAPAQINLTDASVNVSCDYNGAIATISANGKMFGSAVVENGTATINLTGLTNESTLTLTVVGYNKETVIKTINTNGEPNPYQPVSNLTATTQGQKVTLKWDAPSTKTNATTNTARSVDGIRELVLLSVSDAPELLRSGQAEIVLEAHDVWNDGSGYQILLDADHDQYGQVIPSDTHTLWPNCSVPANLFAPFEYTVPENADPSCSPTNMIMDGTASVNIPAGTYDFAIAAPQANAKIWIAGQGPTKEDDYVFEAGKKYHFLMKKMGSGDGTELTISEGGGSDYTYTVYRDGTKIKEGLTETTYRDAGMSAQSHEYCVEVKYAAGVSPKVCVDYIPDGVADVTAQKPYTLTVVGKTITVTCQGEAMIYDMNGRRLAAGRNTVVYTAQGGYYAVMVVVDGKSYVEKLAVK

Binder | OD450nm | Ratio OD(Variant)/OD(WT)
B1 | 0.8 OD450nm | 0.871 ratio to WT
B2 | 0.827 OD450nm | 0.9 ratio to WT
B3 | 0.849 OD450nm | 0.924 ratio to WT
B4 | 0.775 OD450nm | 0.982 ratio to WT
B5 | 0.687 OD450nm | 0.871 ratio to WT
B6 | 0.633 OD450nm | 0.802 ratio to WT
B7 | 0.769 OD450nm | 0.975 ratio to WT
B8 | 0.667 OD450nm | 0.845 ratio to WT
B9 | 0.654 OD450nm | 0.829 ratio to WT
B10 | 0.75 OD450nm and 0.756 OD450nm | 0.951 ratio to WT and 0.958 ratio to WT
B11 | 0.662 OD450nm | 0.839 ratio to WT
B12 | 0.739 OD450nm | 0.937 ratio to WT
B13 | 0.836 OD450nm | 0.955 ratio to WT
B14 | 0.832 OD450nm and 0.838 OD450nm and 0.787 OD450nm | 0.951 ratio to WT and 0.958 ratio to WT and 0.899 ratio to WT
B15 | 0.726 OD450nm and 0.722 OD450nm | 0.83 ratio to WT and 0.825 ratio to WT
B16 | 0.729 OD450nm | 0.833 ratio to WT
B17 | 0.493 OD450nm | 0.942 ratio to WT
B18 | 0.46 OD450nm | 0.879 ratio to WT
B19 | 0.461 OD450nm and 0.428 OD450nm | 0.881 ratio to WT and 0.818 ratio to WT

The binders below were run against HRgpA-6H (Porphyromonas gingivalis) (UniProt P28784) (assay: ELISA, Fab FASEBA supernatant on coated HRgpA-6H (0.0625 ug/ml)).

Binder | OD450nm | Ratio OD(Variant)/OD(WT)
B20 | 0.788 and 0.806 and 0.73 | 0.953 and 0.975 and 0.883
